Measurements as given in the supplement of paper PMC10567573.

B1: C20orf112 (parent)
chain: YANGGLNYSYRGYGALSSNLQPPA

Variants of: B1
Test: protein stability index of a GFP-peptide fusion (GPS, HEK-293T) (PSI 1-6); higher = more stable
Details: c terminus: a fixed tail appended
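Note: lentivirally expressed fusions sorted by FACS into six bins by GFP to DsRed ratio, PSI derived from sequencing read proportions per bin multiplied by bin number.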

Protein stability index, by site and new letter:
S18: T 2.05, K 1.61, I 1.78, G 1.58, N 1.57, Q 2.6, F 1.72, C 2.17, V 1.73, E 1.56, L 1.85, A 2.15, M 2.06, W 2.07
A2: W 2.22, F 2.07, Q 1.4, L 1.93, T 1.99, V 2.49, R 2.22, C 1.87, E 2.63, K 2.19, Y 2.63, S 1.54, I 2.1, M 1.68, H 1.62
Y10: N 1.89, F 1.5, K 1.73, H 2.15, V 1.89, D 1.54, L 2.3, I 1.99, C 2.23, A 1.9, Q 1.77, S 2.48, G 1.5, M 2.97, E 1.32
P22: V 1.83, G 2.65, H 1.94, E 2.41, F 3.69, S 1.62, N 2.33, Y 3.09, M 1.63, T 1.71, A 1.5, W 1.97, L 2.27, D 1.6
A15: S 2.22, V 1.85, T 2.75, N 2.4, W 1.88, G 1.87, F 2.68, P 2.52, M 1.49, K 2.24, I 2.42, C 2.32, R 2.8, L 2.6, H 2.62, E 2.37
L20: Y 1.34, C 2.7, S 2.34, T 1.55, H 1.69, E 1.37, D 1.36, M 1.52, K 2.27, G 2.28, N 2.11, V 1.84, I 2.54, A 1.79, F 1.55
G14: Q 1.76, T 2.8, R 2.7, E 2.45, C 3.39, H 2.07, D 1.54, M 2.18, K 2.21, I 3.6, V 2.4
G5: K 1.82, Q 1.93, T 1.91, I 2.21, C 2.2, S 1.65, N 1.72, L 1.9, V 2.03, W 2.37, A 1.99, F 1.98, R 1.98, Y 1.86
A24: W 1.86, N 1.9, I 2.43, T 2.52, Y 1.75, F 1.78, V 2.23, R 2.48, H 2.19, C 2.37, D 1.86, L 1.62, E 1.95, K 2, P 2.73
N7: Q 2.08, H 3.47, A 2.81, P 2.47, R 1.52, G 3.08, I 2.27, V 1.15, L 3.75, C 2.1, D 1.36, Y 2.53, W 2.86, S 2.38, M 2.76
G12: Q 1.86, I 2.72, K 1.97, T 2.23, N 1.93, R 1.08, H 2.55, V 3.16, S 1.91, P 1.91, E 1.63, F 1.67, W 2.08, L 2.31
P23: L 1.54, N 2.17, H 1.34, M 2.3, Y 1.9, A 1.81, S 1.65, E 2.05, R 1.81, F 2.52, K 1.97, C 1.92, W 2.61, Q 1.77
Y13: N 1.84, H 2.01, S 1.96, L 2.87, I 2.29, F 2.5, P 2.04, D 1.82, A 1.93, R 1.42, Q 2.13, K 2.12, C 2.63, M 2.56
L16: F 1.67, E 2.54, N 2.61, H 2.48, C 1.64, K 1.87, D 1.68, V 2.21, P 2.57, R 2.3, W 2.68
S17: W 1.85, M 2.17, C 2.2, T 2.15, I 3.55, P 1.9, A 1.58, K 1.94, F 2.49, G 3.12, Y 2.53
R11: K 2.09, E 1.94, F 2.31, M 2.48, T 1.53, C 3.49, N 2.27, D 1.82, H 1.69, W 2.44, P 2.06, Q 2.32, A 1.72, V 2.09, Y 2.21, L 2.31
Q21: F 2.26, H 2.04, W 1.75, I 2.76, R 1.75, Y 2.29, P 2.28, E 2.16, N 1.64, A 1.66, D 2.22, L 1.99, M 1.71
N3: C 1.69, T 1.65, D 2.56, V 2.08, S 1.99, K 1.7, P 2.35, G 1.98, Q 1.65, E 1.6, Y 1.8, I 2.11, H 1.55, L 2.25
N19: Q 2.14, V 1.99, A 1.71, R 1.99, P 2.18, L 2.53, M 1.88, S 2.44, D 2.15, K 2.96, F 1.53
S9: Q 1.46, M 2.77, G 1.88, R 1.67, P 1.7, T 1.82, H 1.82, F 2.99, I 2.58, K 1.57, A 2.35, Y 1.59
Y8: M 1.95, C 2.22, K 1.83, F 1.73, I 2.15, S 1.89, H 1.85, E 2.13, R 2.04, N 2.22, P 1.37, L 1.94, Q 1.64, T 1.84, A 1.76, V 2.19, G 2.19
L6: W 2.27, P 2.5, K 1.57, H 1.97, M 2.3, Q 1.55, R 2.1, I 2.33, A 2.03, N 1.47, S 1.65, G 1.73, E 1.97, F 2.08
G4: D 2.05, R 1.38, T 1.98, L 2.01, K 2.4, A 2.81, W 1.99, P 2.18, M 1.48, S 1.66, F 1.42, Y 2.38, C 1.91, H 1.6, E 2.01
Y1: K 2.96, S 3.12, L 2.67, N 3.08, W 1.85, F 1.86, H 2.64, C 1.96, M 2.87, T 2.83, A 3.08, E 3.15, I 2.45, R 2.97
